Test results published in patent US20210285949A1.

Biological target: human recombinant adrenomedullin receptor (CRLR+RAMP3) (human)

antagonist (human ADM 22-52) (from UniProt P35318) (peptide)
IC50 (read off the curve); cAMP HTRF assay, agonist 5.63 nM hADM: 200 nM
